Measured values taken from patent publication US20150080245A1 (CATHOLIC UNIVERSITY INDUSTRY ACADEMIC COOPERATION FOUNDATION, published 2015).

Target: T1, cyclic citrullinated peptide (CCP) derived from filaggrin (X stands for citrulline (9th residue of HQCHQESTXGRSRGRCGRSGS); a chemical bond between the two underlined Cs (cyclic))
T1 construct: Synthesized peptide, coated on ELISA plates at 250 ng/well; also called Filaggrin-derived CCP; CCP peptide
T1 peptide: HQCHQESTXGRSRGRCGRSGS
Assay: ELISA, coated CCP peptide, hybridoma supernatant diluted 1:1000
Protocol: For hybridoma selection, each of the CCP peptide and the CRP peptide, both previously prepared, was diluted to a final concentration of 250 ng/well in PBS or a carbonate buffer. The dilution was allocated in an amount of 50 μl into 96-well plates and incubated for 2 hrs at room temperature or overnight at 4° C. Each well was washed with 200 μl of PBS. To this end, the plates were overturned to decant the solution out of all the wells, and then struck down against paper towel to completely remove the remaining solution. […] After 30 min of the incubation, the color development was terminated with a stop solution, and color intensity to was immediately measured at 450 nm in a single point photo mode. […]
Repeated screening of the hybridoma cells against CCP and CRP left two clones 11G1 and 12G1 in the final stage (FIGS. 7 and 8). FIGS. 6 to 8 list binding intensities of anti-CCP antibodies when they recognized and bound to the target peptide CCP in each screening stage of the hybridomas, as measured by absorbance at 450 nm. […] With reference made to these marked values, how effectively each hybridoma clone produced an anti-CCP antibody was analyzed, and selection was made of effective clones which were then cultured many times so that the effective clones producing anti-CCP antibodies only predominated over other clones.

B1: monoclonal antibody 12G1 produced from the 12G1 hybridoma cell line (accession No. KCLRF-BP-00276) (antibody, V domains shown)
VH: EVKLEESGAELVRPGTSVKISCKASGYGFTNYWLGWIKQRPGHGLEWIGDVYPGSGNTYYNEKFKGKATLTADKSSSTVYMQLSSLTSEDSTVYFCAREGGITTAPYPFGYWGQGTLVTVSA
VL: DIVMTQTPSSMYASLGERVTITCKASQDINSYLSWFQQKPGKSPKTLIYRANRLVDGVPSRFSGSGSGQDYSLTISSLEYEDMGIYYCLQYDEFPWTFGGGTKLEIK
notes: Mouse monoclonal antibody from a hybridoma, detected with anti-mouse IgG; Used as hybridoma supernatant or as purified antibody; also called 12G1 antibody
  binding result: binds
